Laboratory results reported in paper PMC11270970.

Target: nucleolin (NuP), recombinant human (Homo sapiens) (UniProt P19338)
Assay: SPR
Details: SPR with recombinant human nucleolin, buffer, salt, pH and temperature not given in the material

Sequence of nucleolin (NuP), recombinant human (Homo sapiens) (P19338 2-710): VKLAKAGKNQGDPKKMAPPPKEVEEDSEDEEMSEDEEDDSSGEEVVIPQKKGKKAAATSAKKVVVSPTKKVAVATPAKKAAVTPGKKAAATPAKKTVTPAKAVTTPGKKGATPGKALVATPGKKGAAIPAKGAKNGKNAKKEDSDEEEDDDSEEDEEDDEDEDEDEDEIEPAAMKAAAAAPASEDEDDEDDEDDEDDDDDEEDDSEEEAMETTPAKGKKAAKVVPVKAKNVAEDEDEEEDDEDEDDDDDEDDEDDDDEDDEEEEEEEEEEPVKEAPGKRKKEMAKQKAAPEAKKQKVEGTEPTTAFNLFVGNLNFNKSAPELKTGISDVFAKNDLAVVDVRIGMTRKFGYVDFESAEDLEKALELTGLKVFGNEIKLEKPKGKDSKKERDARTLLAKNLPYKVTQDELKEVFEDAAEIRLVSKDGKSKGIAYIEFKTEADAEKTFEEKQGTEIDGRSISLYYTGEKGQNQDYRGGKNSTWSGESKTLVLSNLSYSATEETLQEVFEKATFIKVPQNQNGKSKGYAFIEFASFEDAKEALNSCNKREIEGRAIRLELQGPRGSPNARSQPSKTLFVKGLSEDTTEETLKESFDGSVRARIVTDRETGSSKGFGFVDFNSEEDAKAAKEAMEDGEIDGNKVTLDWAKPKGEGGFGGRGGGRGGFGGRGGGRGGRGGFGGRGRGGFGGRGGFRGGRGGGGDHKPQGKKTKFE

Sequence | Kd (1:1 Langmuir fit, 5' CH2CH2-(OCH2CH2)3-O linker as listed in Table S1, 5' amino form also listed, form used in SPR not stated) [nM] | Kd (5' triptolide via acetal ester linker - amino-CH2CH2-(OCH2CH2)3-O-) [nM]
GGTGGTGGTGGTTGTGGTGGTGGTGG [AS1411] | 3.77 | –
GGTGGTGGTGGTTGTGGTGGTGGTGG [AS-TP (TP-amino-AS1411, 6a)] | – | 4.03
